The values below come from patent US20220204580A1 (AstraZeneca / MedImmune, published 2022).

Numbered stars: 1 amine (or outer) side, 2 acyl side, 3 side chain; on linkers, the order of the positions; unused ones are H or OH. Bridge positions count the residues as written; N and C are the ends. Square brackets hold non-standard residues; d marks the D form. Side chains are listed from the residue outwards. Ends that are not written are not given here. * marks the point of attachment. C20 diacid = O=C(O)CCCCCCCCCCCCCCCCCCC(=O)*; C18 diacid = O=C(O)CCCCCCCCCCCCCCCCC(=O)*; γGlu = O=C(O)[C@H](CCC(=O)[*:2])N[*:1]; αMeF = C[C@](N)(Cc1ccccc1)C(=O)O; Aib = CC(C)(N)C(=O)O

Common to all, as to test: cell-based or functional assay
Experiment [1] concerns the target T1, human calcitonin receptor (human, UniProt P30988 25-474).
T1 sequence (looked up): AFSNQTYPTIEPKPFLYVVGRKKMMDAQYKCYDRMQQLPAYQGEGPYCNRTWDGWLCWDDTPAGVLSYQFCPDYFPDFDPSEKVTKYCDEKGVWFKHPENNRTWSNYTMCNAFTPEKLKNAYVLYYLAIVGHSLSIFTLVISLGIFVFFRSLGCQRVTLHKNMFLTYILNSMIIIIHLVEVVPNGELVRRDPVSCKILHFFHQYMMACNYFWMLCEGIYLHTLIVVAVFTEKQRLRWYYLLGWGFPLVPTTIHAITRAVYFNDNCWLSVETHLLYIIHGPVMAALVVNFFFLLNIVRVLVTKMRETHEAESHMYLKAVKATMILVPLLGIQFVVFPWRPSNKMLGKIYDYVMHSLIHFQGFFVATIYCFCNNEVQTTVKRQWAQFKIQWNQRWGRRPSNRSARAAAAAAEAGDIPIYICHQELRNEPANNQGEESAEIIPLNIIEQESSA

Experiment [2] concerns the target T2, human amylin receptor (calcitonin receptor co-expressed with receptor activity modifying protein, RAMP3) (human, UniProt P30988 25-474; O60896 24-148).
T2 sequence (looked up) 1: T1 sequence (looked up)
T2 sequence (looked up) 2: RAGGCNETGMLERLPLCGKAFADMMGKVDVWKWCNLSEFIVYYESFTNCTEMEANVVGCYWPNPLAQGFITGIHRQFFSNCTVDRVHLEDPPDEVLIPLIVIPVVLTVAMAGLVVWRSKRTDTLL

The target of a further experiment is T3, rat calcitonin receptor (rat, UniProt P32214 25-516).
T3 sequence (looked up): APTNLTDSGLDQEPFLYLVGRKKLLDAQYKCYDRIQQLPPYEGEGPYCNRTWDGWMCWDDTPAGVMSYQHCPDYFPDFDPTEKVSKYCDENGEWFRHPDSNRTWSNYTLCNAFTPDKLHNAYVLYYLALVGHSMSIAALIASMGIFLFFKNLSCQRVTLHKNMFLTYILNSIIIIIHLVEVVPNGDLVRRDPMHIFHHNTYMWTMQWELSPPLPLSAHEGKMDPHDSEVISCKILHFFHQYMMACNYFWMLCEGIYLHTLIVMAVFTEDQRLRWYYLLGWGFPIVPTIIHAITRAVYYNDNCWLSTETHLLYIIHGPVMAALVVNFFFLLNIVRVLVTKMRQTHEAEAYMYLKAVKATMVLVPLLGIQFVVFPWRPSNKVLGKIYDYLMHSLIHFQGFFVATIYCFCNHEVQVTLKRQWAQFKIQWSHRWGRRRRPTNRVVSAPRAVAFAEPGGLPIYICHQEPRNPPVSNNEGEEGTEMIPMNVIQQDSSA

Experiment [3] addresses T4, rat amylin receptor (calcitonin receptor co-expressed with receptor activity modifying protein, RAMP3) (rat, UniProt P32214 25-516; Q9JJ73 23-147).
T4 sequence (looked up) 1: T3 sequence (looked up)
T4 sequence (looked up) 2: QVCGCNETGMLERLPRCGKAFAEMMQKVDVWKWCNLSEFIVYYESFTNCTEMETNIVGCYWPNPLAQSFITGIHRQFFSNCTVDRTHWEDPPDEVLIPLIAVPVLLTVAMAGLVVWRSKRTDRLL

Turning to {C18 diacid}-[γGlu]KCNTATCATQRLANFLVHSSNNFGPILPPTNVGSNTY-NH2 (disulfide 3-8) [Peptide 3 (SEQ ID NO: 3)], the “EC50 (cAMP production)” value in experiment [1] was 1.35 nM; in experiment [2], 0.246 nM; with rat calcitonin receptor it was 0.186 nM; in experiment [3], 0.0029 nM. In experiment [2], the “Ratio (EC50 hCTR / EC50 hAMYR3)” value amounted to 5.

B1: Peptide 129 (SEQ ID NO: 129) (peptide)
peptide: K([γGlu-C18 diacid])KCNTATCATQRLANFL[Aib]HSSNNFGPILPPTNVGSNTY-NH2
modifications: disulfide 3-8; N-terminus assumed
SMILES: CC[C@H](C)[C@H](NC(=O)[C@@H]1CCCN1C(=O)CNC(=O)[C@H](Cc1ccccc1)NC(=O)[C@H](CC(N)=O)NC(=O)[C@H](CC(N)=O)NC(=O)[C@H](CO)NC(=O)[C@H](CO)NC(=O)[C@H](Cc1c[nH]cn1)NC(=O)C(C)(C)NC(=O)[C@H](CC(C)C)NC(=O)[C@H](Cc1ccccc1)NC(=O)[C@H](CC(N)=O)NC(=O)[C@H](C)NC(=O)[C@H](CC(C)C)NC(=O)[C@H](CCCNC(=N)N)NC(=O)[C@H](CCC(N)=O)NC(=O)[C@@H](NC(=O)[C@H](C)NC(=O)[C@@H]1CSSC[C@H](NC(=O)[C@H](CCCCN)NC(=O)[C@@H](N)CCCCNC(=O)CC[C@H](NC(=O)CCCCCCCCCCCCCCCCC(=O)O)C(=O)O)C(=O)N[C@@H](CC(N)=O)C(=O)N[C@@H]([C@@H](C)O)C(=O)N[C@@H](C)C(=O)N[C@@H]([C@@H](C)O)C(=O)N1)[C@@H](C)O)C(=O)N[C@@H](CC(C)C)C(=O)N1CCC[C@H]1C(=O)N1CCC[C@H]1C(=O)N[C@H](C(=O)N[C@@H](CC(N)=O)C(=O)N[C@H](C(=O)NCC(=O)N[C@@H](CO)C(=O)N[C@@H](CC(N)=O)C(=O)N[C@H](C(=O)N[C@@H](Cc1ccc(O)cc1)C(N)=O)[C@@H](C)O)C(C)C)[C@@H](C)O
Consider B1, for which the “EC50 (cAMP production)” value in experiment [1] was 5.75 nM; in experiment [2], 0.553 nM; with rat calcitonin receptor, 2.87 nM; in experiment [3] it was 0.0112 nM. In addition, the “Ratio (EC50 hCTR / EC50 hAMYR3)” value in experiment [2] worked out at 10.4.

B2: Peptide 15 (SEQ ID NO: 15) (peptide)
peptide: K([γGlu-C18 diacid])KCNTATCATQRLANFLRHSSNN[αMeF]GPILPPTEVGSNTY-NH2
modifications: disulfide 3-8; N-terminus assumed
SMILES: CC[C@H](C)[C@H](NC(=O)[C@@H]1CCCN1C(=O)CNC(=O)[C@](C)(Cc1ccccc1)NC(=O)[C@H](CC(N)=O)NC(=O)[C@H](CC(N)=O)NC(=O)[C@H](CO)NC(=O)[C@H](CO)NC(=O)[C@H](Cc1c[nH]cn1)NC(=O)[C@H](CCCNC(=N)N)NC(=O)[C@H](CC(C)C)NC(=O)[C@H](Cc1ccccc1)NC(=O)[C@H](CC(N)=O)NC(=O)[C@H](C)NC(=O)[C@H](CC(C)C)NC(=O)[C@H](CCCNC(=N)N)NC(=O)[C@H](CCC(N)=O)NC(=O)[C@@H](NC(=O)[C@H](C)NC(=O)[C@@H]1CSSC[C@H](NC(=O)[C@H](CCCCN)NC(=O)[C@@H](N)CCCCNC(=O)CC[C@H](NC(=O)CCCCCCCCCCCCCCCCC(=O)O)C(=O)O)C(=O)N[C@@H](CC(N)=O)C(=O)N[C@@H]([C@@H](C)O)C(=O)N[C@@H](C)C(=O)N[C@@H]([C@@H](C)O)C(=O)N1)[C@@H](C)O)C(=O)N[C@@H](CC(C)C)C(=O)N1CCC[C@H]1C(=O)N1CCC[C@H]1C(=O)N[C@H](C(=O)N[C@@H](CCC(=O)O)C(=O)N[C@H](C(=O)NCC(=O)N[C@@H](CO)C(=O)N[C@@H](CC(N)=O)C(=O)N[C@H](C(=O)N[C@@H](Cc1ccc(O)cc1)C(N)=O)[C@@H](C)O)C(C)C)[C@@H](C)O
On to B2, for which the “EC50 (cAMP production)” value is 5.46 nM in experiment [1], 0.522 nM in experiment [2], 1.82 nM with rat calcitonin receptor and 0.0103 nM in experiment [3]. In experiment [2], the “Ratio (EC50 hCTR / EC50 hAMYR3)” value was 10.

B3: Peptide 116 (SEQ ID NO: 116) (peptide)
peptide: K([γGlu-γGlu-C20 diacid])CNTATCATQRLAEFLRHSSNNFGPILPPTNVGSNTY-NH2
modifications: disulfide 2-7; N-terminus assumed
SMILES: CC[C@H](C)[C@H](NC(=O)[C@@H]1CCCN1C(=O)CNC(=O)[C@H](Cc1ccccc1)NC(=O)[C@H](CC(N)=O)NC(=O)[C@H](CC(N)=O)NC(=O)[C@H](CO)NC(=O)[C@H](CO)NC(=O)[C@H](Cc1c[nH]cn1)NC(=O)[C@H](CCCNC(=N)N)NC(=O)[C@H](CC(C)C)NC(=O)[C@H](Cc1ccccc1)NC(=O)[C@H](CCC(=O)O)NC(=O)[C@H](C)NC(=O)[C@H](CC(C)C)NC(=O)[C@H](CCCNC(=N)N)NC(=O)[C@H](CCC(N)=O)NC(=O)[C@@H](NC(=O)[C@H](C)NC(=O)[C@@H]1CSSC[C@H](NC(=O)[C@@H](N)CCCCNC(=O)CC[C@H](NC(=O)CC[C@H](NC(=O)CCCCCCCCCCCCCCCCCCC(=O)O)C(=O)O)C(=O)O)C(=O)N[C@@H](CC(N)=O)C(=O)N[C@@H]([C@@H](C)O)C(=O)N[C@@H](C)C(=O)N[C@@H]([C@@H](C)O)C(=O)N1)[C@@H](C)O)C(=O)N[C@@H](CC(C)C)C(=O)N1CCC[C@H]1C(=O)N1CCC[C@H]1C(=O)N[C@H](C(=O)N[C@@H](CC(N)=O)C(=O)N[C@H](C(=O)NCC(=O)N[C@@H](CO)C(=O)N[C@@H](CC(N)=O)C(=O)N[C@H](C(=O)N[C@@H](Cc1ccc(O)cc1)C(N)=O)[C@@H](C)O)C(C)C)[C@@H](C)O
As for B3, the “EC50 (cAMP production)” value was 9.56 nM in experiment [1], 1.21 nM in experiment [2], 9.05 nM with rat calcitonin receptor and 0.0237 nM in experiment [3]. Further, the “Ratio (EC50 hCTR / EC50 hAMYR3)” value in experiment [2] is 8.

B4: Peptide 115 (SEQ ID NO: 115) (peptide)
peptide: K([γGlu-γGlu-C20 diacid])CNTATCATQRLANFLVHSSPNFPAILSPTNVGSNTY-NH2
modifications: disulfide 2-7; N-terminus assumed
SMILES: CC[C@H](C)[C@H](NC(=O)[C@H](C)NC(=O)[C@@H]1CCCN1C(=O)[C@H](Cc1ccccc1)NC(=O)[C@H](CC(N)=O)NC(=O)[C@@H]1CCCN1C(=O)[C@H](CO)NC(=O)[C@H](CO)NC(=O)[C@H](Cc1c[nH]cn1)NC(=O)[C@@H](NC(=O)[C@H](CC(C)C)NC(=O)[C@H](Cc1ccccc1)NC(=O)[C@H](CC(N)=O)NC(=O)[C@H](C)NC(=O)[C@H](CC(C)C)NC(=O)[C@H](CCCNC(=N)N)NC(=O)[C@H](CCC(N)=O)NC(=O)[C@@H](NC(=O)[C@H](C)NC(=O)[C@@H]1CSSC[C@H](NC(=O)[C@@H](N)CCCCNC(=O)CC[C@H](NC(=O)CC[C@H](NC(=O)CCCCCCCCCCCCCCCCCCC(=O)O)C(=O)O)C(=O)O)C(=O)N[C@@H](CC(N)=O)C(=O)N[C@@H]([C@@H](C)O)C(=O)N[C@@H](C)C(=O)N[C@@H]([C@@H](C)O)C(=O)N1)[C@@H](C)O)C(C)C)C(=O)N[C@@H](CC(C)C)C(=O)N[C@@H](CO)C(=O)N1CCC[C@H]1C(=O)N[C@H](C(=O)N[C@@H](CC(N)=O)C(=O)N[C@H](C(=O)NCC(=O)N[C@@H](CO)C(=O)N[C@@H](CC(N)=O)C(=O)N[C@H](C(=O)N[C@@H](Cc1ccc(O)cc1)C(N)=O)[C@@H](C)O)C(C)C)[C@@H](C)O
For B4, the “EC50 (cAMP production)” value in experiment [1] was 7.65 nM; in experiment [2] it was 0.703 nM; with rat calcitonin receptor, 22.6 nM; in experiment [3], 0.0226 nM. Moreover, the “Ratio (EC50 hCTR / EC50 hAMYR3)” value in experiment [2] worked out at 11.
